In experiment [1] the target is T1, Recombinant Human OX40L (Leader sequence, Isoleucine Zipper and FLAG Sequence Included) (human).
T1 construct: also called hOX40L; recombinant hOX40L
The experiment in a line: SPR (ProteOn XPR36), antibody captured on anti-mouse IgG, hOX40L at a single concentration of 256 nM, 1:1 model, apparent affinity, 25 C. As to the method: (§1) SPR analysis was carried out using the ProteOn™ XPR36 Array System (BioRad). Anti-mouse IgG (GE Healthcare BR-1008-38) was immobilised on a GLM biosensor surface using amine coupling, the surface was then blocked using 1 M ethanolamine. Test antibodies were captured on this surface and recombinant hOX40L (human and rhesus) were used at a single concentration of 256 nM, binding sensorgrams were double referenced using a buffer injection (i.e. 0 nM) to remove baseline drift and injection artefacts. Apparent affinities for the OX40L-antibody interaction were determined using the 1:1 model inherent to the ProteOn XPR36 analysis software. The assay was run using HBS-EP (Teknova) as running buffer and carried out at 25° C.

In experiment [2] the target is T1, Recombinant Human OX40L (Leader …). Description: HTRF ligand/receptor neutralisation: biotinylated hOX40L with OX40RFc-AF647, antibody titrated; readout is % of receptor binding. The method, then: (§2) In order to determine whether recombinantly expressed fully human purified IgG inhibit human OX40L binding to OX40RFc the following method was carried out. Fully human purified IgG or other inhibitor were tested in order to establish the clone potency as measured by IC₅₀ values in the assay. Antibodies recombinantly expressed and purified were titrated by diluting in HTRF assay buffer and 5 μL of this titration transferred to a white 384 well low volume non-binding surface polystyrene plate (Greiner). Biotinylated OX40L was diluted in HTRF assay buffer to a working concentration of 2.4 nM and 5 μL added. OX40RFc directly labelled with AF647 was then diluted to working concentration of 10 nM and 5 μL added. Non-specific binding was defined by replacing OX40RFc-AF647 with assay buffer or HMM. […] Plates were covered, protected from light and incubated at room temperature for 3 hrs prior to reading time resolved fluorescence at 620 nm and 665 nm emission wavelengths using an EnVision plate reader (Perkin Elmer). Data were analysed by calculating delta F as described in Equation 4 and percentage of receptor for each sample according to Equation 5 or in some cases Equation 6. IC₅₀ values were determined using GraphPad Prism software by curve fitting using a four-parameter logistic equation (Equation 7) (FIG. 1).
(In TR-FRET formats the signal depends on donor and acceptor labels being close together.)

Experiment [3] addresses T2, Recombinant Rhesus OX40L (Leader Sequence, FLAG and Isoleucine zipper included) (Rhesus (Macaca mulatta)).
T2 construct: also called RhsOX40L; Rhesus monkey OX40L
Description: SPR (ProteOn XPR36), rhesus OX40L at 256 nM, apparent affinity; CNROR = Cannot resolve off-rate.

The target of experiment [4] is T1, Recombinant Human OX40L (Leader …). Description: HTRF ligand/receptor neutralisation, biotinylated hOX40L, competitor OX40RFc-AF647; mean of three experiments, SEM +/-0.04. The method, then:
as §2

The target of experiment [5] is T2, Recombinant Rhesus OX40L (Leader …). The experiment in a line: SPR (ProteOn XPR36), antibody captured, rhesus OX40L at 256 nM, apparent affinity; CNROR = Cannot resolve off-rate. The method, then: as §1
Experiment [6] deals with T1, Recombinant Human OX40L (Leader …). Description: HTRF ligand/receptor neutralisation, biotinylated hOX40L, competitor OX40RFc-AF647; mean of three experiments, SEM +/-0.17. The method, then:
as §2

T2 sequence (chain, as listed by the source limits assumed): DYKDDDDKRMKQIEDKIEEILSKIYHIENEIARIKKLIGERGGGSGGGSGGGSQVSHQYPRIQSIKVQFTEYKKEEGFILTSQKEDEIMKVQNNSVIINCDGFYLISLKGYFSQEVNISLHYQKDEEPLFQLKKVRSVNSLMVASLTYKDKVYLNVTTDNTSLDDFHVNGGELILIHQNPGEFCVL
T1 sequence (chain, as listed by the source limits assumed): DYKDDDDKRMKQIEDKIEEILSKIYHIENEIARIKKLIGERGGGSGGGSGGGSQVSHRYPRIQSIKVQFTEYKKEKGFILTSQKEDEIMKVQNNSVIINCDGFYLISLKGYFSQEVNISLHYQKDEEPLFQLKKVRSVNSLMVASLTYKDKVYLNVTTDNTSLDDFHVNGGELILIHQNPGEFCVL

B1: 9H04 (hybridoma) (antibody, V domains shown)
VH: QVQLVESGGGLVKPGGSLRLSCAASRFTLSDYYMTWIRQAPGKGLEWVSYISSSGNTIYYADSVKGRFTISRDNAKNSLYLQMNSLRAEDTAVYYCARDLSGSYWDYYYGMDVWGQGTTVTVSS
VL: AIQLTQSPSSLSTSVGDRVTIACRASQGINNALAWYQQKPGKAPKLLIYDASSLESGVPSRFSGSGSGTDFTLTISSLQPEDFATYYCQQFNSYPRTFGQGTKVEIK
notes: also called 09H04
For B1, the Kd in experiment [1] worked out at 5.3 nM.

B2: 19H01 (hybridoma) (antibody, V domains shown)
VH: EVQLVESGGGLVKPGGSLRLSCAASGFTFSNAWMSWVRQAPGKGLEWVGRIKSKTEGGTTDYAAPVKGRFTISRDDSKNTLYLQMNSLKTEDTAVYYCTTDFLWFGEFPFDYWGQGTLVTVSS
VL: DIQMTQSPSSLSASVGDRVTITCRASQGISNYLAWYQQKPGKIPKLLIYAASTLQSGVPSRFSGSGSGTDFTLTISSLQPEDVATYYCQKYNSAPRTFGQGTKVEIK
Turning to B2, in experiment [1], the Kd amounted to 2.2 nM.

B3: 2D10 (human) (antibody, human IgG4 S228P, kappa, V domains shown)
VH: EVQLVESGGGLVQPGGSLRLSCAASGFTFSNYAMNWVRQAPGKGLEWVSTISGSGGATRYADSVKGRFTISRDNSRNTVYLQMNSLRVEDTAVFYCTKDRLIMATVRGPYYYGMDVWGQGTTVTVSS
VL: DIQMTQSPSSLSASVGDRVTITCRASQSISSYLNWYQQKPGKAPNLLIYAASSLQSGVPSRFSGSGSETDFTLTISSLQPEDFATYYCQQSHSVSFTFGPGTKVDIKR
notes: also called 02D10; 02D10 IgG4-PE
One may read the IC50 as the concentration needed to halve the response being measured. Take B3: in experiment [2], the “IC50 (read off the curve)” value was about 0.8 nM. Further, the binding result in experiment [3] is “binds”. The 50% inhibitory concentration (IC50) in experiment [4] came out at 0.75 nM.

B4: 2D10 (hybridoma) (antibody, V domains shown)
VH: B3 VH
VL: DIQMTQSPSSLSASVGDRVTITCRASQSISSYLNWYQQKPGKAPNLLIYAASSLQSGVPSRFSGSGSETDFTLTISSLQPEDFATYYCQQSHSVSFTFGPGTKVDIK
notes: Kappa light chain; also called 02D10
For the molecule B4, the binding result in experiment [5] is given as “binds”.

B5: 10A07 (human) (antibody, human IgG4 S228P, kappa, V domains shown)
VH: EVQLVESGGVLVQPGGSLRLSCAASGFTFSSYIMTWVRQAPGKGLEWVSGISGSGGGTYYADSMKGRFTISRDNSKNTLYLQMNSLRVEDTAVYYCAKDRLGPITLVRGGYYYGMDVWGQGTTVTVSS
VL: DIQMTQSPSSLSASVGDRVTITCRASQSISDYLNWYQQKPGKAPKFLIYAASSLQSGVPSRFSGSGSGTDFTLTVSSLQPEDFATYYCQQSYSTPRTFGQGTRVEIKR
notes: also called 10A7; 10A07 IgG4PE
Consider B5, for which, in experiment [2], the “IC50 (read off the curve)” value was about 1 nM. Further, the 50% inhibitory concentration (IC50) in experiment [6] amounted to 1.2 nM. For the same molecule, the binding result in experiment [3] is listed as “binds”.

B6: 10A07 (hybridoma) (antibody, V domains shown)
VH: B5 VH
VL: DIQMTQSPSSLSASVGDRVTITCRASQSISDYLNWYQQKPGKAPKFLIYAASSLQSGVPSRFSGSGSGTDFTLTVSSLQPEDFATYYCQQSYSTPRTFGQGTRVEIK
notes: Kappa light chain; also called 10A7; mAb 10A7
For the molecule B6, in experiment [5], the binding result is “binds”.

(Values after patent US20170002083A1 (KYMAB, published 2017).)
